Experimental data as given in the array DNA melting data of Ke et al..

Test: melting temperature; melt of duplexes
Settings: sodium 0.0675 M; strand 1 µM

| Substance | Tm |
| --- | --- |
| CGACGTGCAGTATGTGCTG+CAGCACATTCCGCACGTCG ((((((((.(.((((((((+)))))))).).)))))))) | 50.1 °C |
| CGACGTGCAGTATGTGCTG+CAGCACATTCGGCACGTCG ((((((((.(.((((((((+)))))))).).)))))))) | 53.1 °C |
| CGACGTGCAGTATGTGCTG+CAGCACATTGCGCACGTCG ((((((((...((((((((+))))))))...)))))))) | 49.3 °C |
| CGACGTGCAGTATGTGCTG+CAGCACATTGGGCACGTCG ((((((((...((((((((+))))))))...)))))))) | 48.8 °C |
| CGACGTGCAGTATGTGCTG+CAGCACATTTGGCACGTCG ((((((((...((((((((+))))))))...)))))))) | 49.2 °C |
| CGACGTGCATAATGTGCTG+CAGCACATAAAGCACGTCG ((((((((.(.((((((((+)))))))).).)))))))) | 50.2 °C |
| CGACGTGCATAATGTGCTG+CAGCACATACTGCACGTCG (((((((((..((((((((+))))))))..))))))))) | 50.5 °C |
| CGACGTGCATAATGTGCTG+CAGCACATATGGCACGTCG ((((((((...((((((((+))))))))...)))))))) | 50.4 °C |
| CGACGTGCATAATGTGCTG+CAGCACATCAAGCACGTCG ((((((((.(.((((((((+)))))))).).)))))))) | 48.4 °C |
| CGACGTGCATAATGTGCTG+CAGCACATCAGGCACGTCG ((((((((.(.((((((((+)))))))).).)))))))) | 50.2 °C |
| CGACGTGCATAATGTGCTG+CAGCACATCATGCACGTCG ((((((((((.((((((((+)))))))).)))))))))) | 54 °C |
| CGACGTGCATAATGTGCTG+CAGCACATCCCGCACGTCG ((((((((...((((((((+))))))))...)))))))) | 46.9 °C |
| CGACGTGCATAATGTGCTG+CAGCACATCGAGCACGTCG ((((((((...((((((((+))))))))...)))))))) | 48.5 °C |
| CGACGTGCATAATGTGCTG+CAGCACATCGTGCACGTCG (((((((((..((((((((+))))))))..))))))))) | 47.6 °C |
| CGACGTGCATAATGTGCTG+CAGCACATCTCGCACGTCG ((((((((...((((((((+))))))))...)))))))) | 47.6 °C |
| CGACGTGCATAATGTGCTG+CAGCACATGAAGCACGTCG ((((((((.(.((((((((+)))))))).).)))))))) | 52.8 °C |
| CGACGTGCATAATGTGCTG+CAGCACATGAGGCACGTCG ((((((((.(.((((((((+)))))))).).)))))))) | 53.2 °C |
| CGACGTGCATAATGTGCTG+CAGCACATGATGCACGTCG ((((((((((.((((((((+)))))))).)))))))))) | 56.8 °C |

| Substance | Tm |
| --- | --- |
| CGACGTGCATAATGTGCTG+CAGCACATGCAGCACGTCG ((((((((...((((((((+))))))))...)))))))) | 51.4 °C |
| CGACGTGCATAATGTGCTG+CAGCACATGCCGCACGTCG ((((((((...((((((((+))))))))...)))))))) | 50.9 °C |
| CGACGTGCATAATGTGCTG+CAGCACATGCGGCACGTCG ((((((((...((((((((+))))))))...)))))))) | 48.7 °C |
| CGACGTGCATAATGTGCTG+CAGCACATGGCGCACGTCG ((((((((...((((((((+))))))))...)))))))) | 53 °C |
| CGACGTGCATAATGTGCTG+CAGCACATGTAGCACGTCG ((((((((...((((((((+))))))))...)))))))) | 52.6 °C |
| CGACGTGCATAATGTGCTG+CAGCACATGTGGCACGTCG ((((((((...((((((((+))))))))...)))))))) | 51 °C |
| CGACGTGCATAATGTGCTG+CAGCACATGTTGCACGTCG (((((((((..((((((((+))))))))..))))))))) | 53.7 °C |
| CGACGTGCATAATGTGCTG+CAGCACATTAAGCACGTCG ((((((((.((((((((((+)))))))))).)))))))) | 55.1 °C |
| CGACGTGCATAATGTGCTG+CAGCACATTCAGCACGTCG ((((((((..(((((((((+)))))))))..)))))))) | 52 °C |
| CGACGTGCATAATGTGCTG+CAGCACATTCCGCACGTCG ((((((((..(((((((((+)))))))))..)))))))) | 50.2 °C |
| CGACGTGCATAATGTGCTG+CAGCACATTCGGCACGTCG ((((((((..(((((((((+)))))))))..)))))))) | 51.8 °C |
| CGACGTGCATAATGTGCTG+CAGCACATTGGGCACGTCG ((((((((..(((((((((+)))))))))..)))))))) | 54.2 °C |
| CGACGTGCATAATGTGCTG+CAGCACATTTCGCACGTCG ((((((((..(((((((((+)))))))))..)))))))) | 51 °C |
| CGACGTGCATAATGTGCTG+CAGCACATTTTGCACGTCG (((((((((.(((((((((+))))))))).))))))))) | 56.1 °C |
| CGACGTGCATCATGTGCTG+CAGCACATAACGCACGTCG ((((((((.(.((((((((+)))))))).).)))))))) | 48.3 °C |
| CGACGTGCATCATGTGCTG+CAGCACATACGGCACGTCG ((((((((...((((((((+))))))))...)))))))) | 46.3 °C |
| CGACGTGCATCATGTGCTG+CAGCACATAGAGCACGTCG ((((((((...((((((((+))))))))...)))))))) | 50.1 °C |
| CGACGTGCATCATGTGCTG+CAGCACATATGGCACGTCG ((((((((...((((((((+))))))))...)))))))) | 48.8 °C |
